Seven molecules from patent US20240279345A1, “ALPHA 5 BETA 1 INTEGRIN BINDING AGENTS AND USES THEREOF” (PASITHEA THERAPEUTICS CORP., priority 2021, published 2024) can be followed below.

Residue numbers refer to the chain shown, from its start. Names and notes keep the numbering of the source.

The target of experiment [1] is α5β1 integrin on U87MG cells (human, UniProt P08648 42-1049; P05556 21-798). The experiment in a line: cell-based or functional assay.
Another experiment deals with U87MG cell line. The experiment is described as follows: Plate-based cell adhesion assay of U87MG cells to FN. The note with it: antibody 3 to 0.01 μg/mL. The protocol:
Cell surface α5β1 integrin receptors interact with FN to promote cellular adhesion. To test whether the human IgG4 chimeric anti-α5β1 antibodies inhibit adhesion, a plate-based cell adhesion assay was developed for use with the U87MG cell line (HTB-14™, ATCC, Manassas, VA) which is derived from a Glioblastoma tumor and is known to express α5β1 integrin. U87MG cells were grown to 80% confluence in EMEM media (ATCC, Manassas, VA, cat. no. 30-2003) supplemented with 10% Fetal Bovine Serum (FBS; ATCC, Manassas, VA, cat. no. 30-2021) in a 5% C02, 37° C. incubator. Cells were dissociated from flasks with 0.05% Trypsin, 0.02% EDTA (Lifeline Cell Technology, Frederick, MD, cat. no. CM0017), washed once with Dulbecco's 1×PBS (DPBS) Modified which contains calcium and magnesium (HyClone, Logan, UT, cat. no. SH30028-02) and resuspended in EMEM media without supplementation at a cellular concentration of 2,000,000 cells per mL. Cells were rested in the incubator for 30 minutes before mixing with a six point 1:3 dilution series of the antibodies with final concentrations ranging from 3 to 0.01 μg/mL in a 96-well polypropylene round-bottom plate. 100,000 rested cells were pre-mixed with each dilution of antibody to a final volume of 100 μL and then transferred to a Human FN coated 96-well plate (R&D Systems, Minneapolis, MN, cat. no. CWP001). The cell-antibody mixtures were incubated for 1 hour at 37° C., 5% C02. Non-adhered cells were removed from the wells by inversion of the plate on an absorbent pad, then washed 2× with 200 uL each well with 1×DPBS without Calcium and Magnesium (EMD Millipore Corp, Billerica, MA, cat. no. TMS-012-A). 100 μL 1× DPBS containing Hoechst 33342 dye (Thermo Fisher Scientific, Waltham, MA, cat. no. 62249) at the recommended dilution (1:2000) was added to each well to fluorescently stain nuclei to facilitate cell counting. Cells that remained adhered to the wells were counted using image analysis software provided by the ImageXpress Pico Automated Cell Imaging System (Molecular Devices, San Jose, CA) which is based on counting fluorescently stained nuclei, in this case using a DAPI filter to detect the Hoechst nuclear staining. Non-linear regression analysis was used to fit curves (4-parameter) to the data using GraphPad Prism version 9.0.2 (GraphPad Software, LLC, San Diego, CA).

The target of experiment [2] is T1, purified recombinant human α5β1 integrin heterodimer, 6×His tagged (rh-α5β1); Acro Biosystems, cat. no. … (human, UniProt P08648 42-995; P05556 21-728).
T1 construct: bought recombinant heterodimer; also called rh-α5β1-6×His tagged protein; His-tagged-α5β1
The experiment in a line: ELISA, inhibition of rh-α5β1-His binding to coated FN, purified hybridoma mAb. The protocol: Immulon4 HBX ELISA 96-well plates were coated with FN by incubation overnight at 4° C. with 2.5 μg/mL human FN (R&D Systems, Minneapolis, MN 55413, cat. no. 1918-FN) in 1×PBS (0.01M phosphate buffer and 0.154M NaCl, pH 7.4). Plates were then washed 3 times with Wash Buffer (1× Tris Buffered Saline containing 0.05% Tween20), blocked with 2% BSA in 1×TBS for 2 hours at room temperature (RT). […] Isotype control antibody (Control Ab; Ms IgG2a EMD Millipore Corp, Billerica, MA, cat. no. PP102) was used to normalize data across different assay runs. […] Following 1 hour at RT, the wells were washed 3 times, incubated with biotinylated Anti-6×His-Tag Ab (Invitrogen, Carlsbad, CA, cat. no. MAI-21315-BTIN) at 1:1000 in Standard Diluent for 1 hour, washed 3 times, incubated for 30 minutes with poly-HRP Streptavidin (Thermo Fisher Scientific, Waltham, MA, cat. no. N200), washed 4 times, incubated with TMB substrate (Thermo Fisher Scientific, Waltham, MA, cat. no. N301) for 2-5 minutes, followed by addition of ELISA Stop Solution (Invitrogen, Carlsbad, CA, cat. no. SS04). Absorbance 450 nm was measured. Data points were normalized to the isotype Control Ab values at each concentration and reported as % Absorbance 450 nm normalized to Control Ab. Non-linear regression analysis was used to fit curves (4-parameter) to the data using GraphPad Prism version 9.0.2 (GraphPad Software, LLC, San Diego, CA).

In experiment [3] the target is T2, recombinant human α5β1 integrin (rh-α5β1; R&D Systems, cat. no. 3230-A5) (human, UniProt P08648 42-995; P05556 21-728).
T2 construct: bought recombinant heterodimer
The experiment is described as follows: ELISA, coated rh-α5β1, supernatant 1:10. Here is the method:
(§1) Plates were washed 3 times with Wash Buffer (1× Tris Buffered Saline containing 0.05% Tween20), blocked with 2% BSA in 1×TBS (made from 10× Thermo Scientific Blocker BSA (10×) in TBS; Thermo Fisher Scientific, Waltham, MA, cat. no. 37520) for 2 hours at room temperature (RT) then incubated with hybridoma supernatants diluted 1:10 with Standard Diluent (2% BSA, 1×TBS, 0.05% Tween20). […] Absorbance 450 nm was measured.

In experiment [4] the target is T3, recombinant mouse α5β1 (rm-α5β1; R&D Systems, cat. no. 7728-A5) (mouse, UniProt P11688 45-999; P09055 21-728).
T3 construct: bought recombinant heterodimer
T3 sequence (P11688 45-999 limits assumed, form in doubt, chain 1 of 2): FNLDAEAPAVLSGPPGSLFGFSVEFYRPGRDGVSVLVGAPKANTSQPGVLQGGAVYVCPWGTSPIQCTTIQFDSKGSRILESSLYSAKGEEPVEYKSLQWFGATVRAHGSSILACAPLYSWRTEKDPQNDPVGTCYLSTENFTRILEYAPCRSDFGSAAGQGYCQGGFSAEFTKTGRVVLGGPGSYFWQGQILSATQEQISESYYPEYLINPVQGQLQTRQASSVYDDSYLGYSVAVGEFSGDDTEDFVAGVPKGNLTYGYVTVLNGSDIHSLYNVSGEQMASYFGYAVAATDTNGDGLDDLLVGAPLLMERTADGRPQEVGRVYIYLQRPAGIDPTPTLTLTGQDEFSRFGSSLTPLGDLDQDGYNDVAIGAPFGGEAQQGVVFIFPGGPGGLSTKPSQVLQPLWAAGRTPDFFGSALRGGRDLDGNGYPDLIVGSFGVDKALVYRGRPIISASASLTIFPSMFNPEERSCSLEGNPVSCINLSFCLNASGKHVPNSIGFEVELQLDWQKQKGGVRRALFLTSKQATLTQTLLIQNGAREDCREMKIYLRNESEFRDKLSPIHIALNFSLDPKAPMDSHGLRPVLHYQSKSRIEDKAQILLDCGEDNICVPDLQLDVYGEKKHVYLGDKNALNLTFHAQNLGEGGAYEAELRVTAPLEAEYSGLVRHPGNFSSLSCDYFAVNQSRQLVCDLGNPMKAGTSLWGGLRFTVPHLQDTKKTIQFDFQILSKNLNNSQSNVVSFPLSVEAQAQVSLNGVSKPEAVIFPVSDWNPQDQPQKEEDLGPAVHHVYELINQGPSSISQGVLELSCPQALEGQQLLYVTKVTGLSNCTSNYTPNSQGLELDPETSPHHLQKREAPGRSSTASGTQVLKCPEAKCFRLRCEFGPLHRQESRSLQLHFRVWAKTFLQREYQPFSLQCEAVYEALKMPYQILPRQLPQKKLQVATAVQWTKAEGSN
T3 sequence (P09055 21-728 limits assumed, form in doubt, chain 2 of 2): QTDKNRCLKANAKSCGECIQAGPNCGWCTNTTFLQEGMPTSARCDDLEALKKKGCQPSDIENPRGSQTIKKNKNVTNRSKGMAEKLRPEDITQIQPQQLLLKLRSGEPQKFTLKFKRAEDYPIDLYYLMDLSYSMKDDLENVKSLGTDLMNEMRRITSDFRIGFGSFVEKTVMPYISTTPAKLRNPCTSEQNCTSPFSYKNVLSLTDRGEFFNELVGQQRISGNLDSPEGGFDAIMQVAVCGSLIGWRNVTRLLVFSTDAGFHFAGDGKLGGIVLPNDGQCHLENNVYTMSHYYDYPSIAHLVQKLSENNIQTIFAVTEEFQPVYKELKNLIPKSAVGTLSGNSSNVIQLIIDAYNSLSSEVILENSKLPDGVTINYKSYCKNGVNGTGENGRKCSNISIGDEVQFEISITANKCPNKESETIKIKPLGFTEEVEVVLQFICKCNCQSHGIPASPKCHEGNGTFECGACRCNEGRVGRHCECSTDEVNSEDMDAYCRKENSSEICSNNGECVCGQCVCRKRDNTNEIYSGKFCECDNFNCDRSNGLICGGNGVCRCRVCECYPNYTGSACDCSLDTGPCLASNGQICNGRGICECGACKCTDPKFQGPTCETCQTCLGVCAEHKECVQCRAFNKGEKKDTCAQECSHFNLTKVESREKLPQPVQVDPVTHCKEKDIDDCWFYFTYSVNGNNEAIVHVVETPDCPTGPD
The experiment in a line: ELISA, coated rm-α5β1, supernatant 1:10. Here is the method:
as §1
A general note: In an ELISA, binding on a coated surface is turned into a signal by an enzyme label.

The target of experiment [5] is T1, purified recombinant human α5β1 …. The experiment in a line: BLI (Octet), supernatant mAb on anti-mouse IgG Fc sensor, 20 nM rh-α5β1. The source says:
Anti-Mouse IgG Fc biosensors were used to load each clone supernatant. Assay steps were as follows: Sensor Check (30s)-->Load Ab (700s)-->Quench (480s)-->Baseline(480s)-->Ab Assoc. (600s)-->Dissoc. (600s).
In general terms: BLI is a label-free optical method that tracks binding on a fibre tip over time.

Experiment [6] addresses T4, recombinant human α4β1 integrin (rh-α4β1; R&D Systems, cat. no. 5668-A4) (human, UniProt P13612 34-977; P05556 21-728).
T4 construct: bought recombinant heterodimer
The experiment in a line: ELISA, coated rh-α4β1, supernatant 1:10.

T4 sequence (P13612 34-977 limits assumed, form in doubt, chain 1 of 2): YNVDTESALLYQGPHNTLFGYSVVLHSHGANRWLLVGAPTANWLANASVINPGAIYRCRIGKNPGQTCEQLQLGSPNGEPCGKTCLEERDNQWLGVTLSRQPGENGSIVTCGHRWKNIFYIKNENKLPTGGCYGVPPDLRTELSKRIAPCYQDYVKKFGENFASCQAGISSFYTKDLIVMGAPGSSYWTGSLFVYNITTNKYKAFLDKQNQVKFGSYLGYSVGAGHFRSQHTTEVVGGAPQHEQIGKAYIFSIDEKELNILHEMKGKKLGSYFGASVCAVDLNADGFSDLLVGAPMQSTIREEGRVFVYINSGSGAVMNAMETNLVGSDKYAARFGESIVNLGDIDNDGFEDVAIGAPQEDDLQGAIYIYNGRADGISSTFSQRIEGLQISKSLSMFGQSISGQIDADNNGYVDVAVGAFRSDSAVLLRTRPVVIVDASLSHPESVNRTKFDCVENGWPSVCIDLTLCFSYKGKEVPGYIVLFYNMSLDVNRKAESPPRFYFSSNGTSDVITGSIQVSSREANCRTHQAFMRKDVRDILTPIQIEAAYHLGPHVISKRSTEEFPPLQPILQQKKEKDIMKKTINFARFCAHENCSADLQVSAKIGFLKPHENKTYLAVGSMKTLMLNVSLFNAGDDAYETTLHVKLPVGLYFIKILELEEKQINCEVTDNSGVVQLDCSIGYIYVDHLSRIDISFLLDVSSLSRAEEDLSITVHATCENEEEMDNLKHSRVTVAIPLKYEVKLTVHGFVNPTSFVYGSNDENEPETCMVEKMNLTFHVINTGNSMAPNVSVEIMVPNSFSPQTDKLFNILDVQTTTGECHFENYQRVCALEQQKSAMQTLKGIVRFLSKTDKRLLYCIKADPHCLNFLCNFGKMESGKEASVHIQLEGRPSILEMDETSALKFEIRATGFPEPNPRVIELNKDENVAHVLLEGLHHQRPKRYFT
T4 sequence (P05556 21-728 limits assumed, form in doubt, chain 2 of 2): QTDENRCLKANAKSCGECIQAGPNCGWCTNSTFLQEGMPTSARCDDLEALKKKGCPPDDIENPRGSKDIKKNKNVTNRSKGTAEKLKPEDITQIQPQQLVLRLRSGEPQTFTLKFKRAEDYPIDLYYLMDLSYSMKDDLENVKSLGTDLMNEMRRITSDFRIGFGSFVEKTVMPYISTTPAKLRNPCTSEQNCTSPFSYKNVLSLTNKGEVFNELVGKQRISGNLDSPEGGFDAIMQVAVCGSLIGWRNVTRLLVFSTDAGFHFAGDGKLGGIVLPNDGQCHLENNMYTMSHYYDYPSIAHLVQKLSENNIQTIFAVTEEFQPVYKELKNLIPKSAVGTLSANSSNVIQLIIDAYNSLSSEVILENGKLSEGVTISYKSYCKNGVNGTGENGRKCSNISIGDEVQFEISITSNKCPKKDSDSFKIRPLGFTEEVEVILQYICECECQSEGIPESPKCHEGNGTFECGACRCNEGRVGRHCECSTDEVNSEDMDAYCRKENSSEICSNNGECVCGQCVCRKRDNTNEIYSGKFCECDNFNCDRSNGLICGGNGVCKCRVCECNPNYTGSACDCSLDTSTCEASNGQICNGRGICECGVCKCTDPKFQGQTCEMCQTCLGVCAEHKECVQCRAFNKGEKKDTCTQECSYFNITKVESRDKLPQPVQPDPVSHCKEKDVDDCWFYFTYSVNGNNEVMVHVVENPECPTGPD
α5β1 integrin on U87MG cells, sequence (P08648 42-1049 limits assumed, chain 1 of 2): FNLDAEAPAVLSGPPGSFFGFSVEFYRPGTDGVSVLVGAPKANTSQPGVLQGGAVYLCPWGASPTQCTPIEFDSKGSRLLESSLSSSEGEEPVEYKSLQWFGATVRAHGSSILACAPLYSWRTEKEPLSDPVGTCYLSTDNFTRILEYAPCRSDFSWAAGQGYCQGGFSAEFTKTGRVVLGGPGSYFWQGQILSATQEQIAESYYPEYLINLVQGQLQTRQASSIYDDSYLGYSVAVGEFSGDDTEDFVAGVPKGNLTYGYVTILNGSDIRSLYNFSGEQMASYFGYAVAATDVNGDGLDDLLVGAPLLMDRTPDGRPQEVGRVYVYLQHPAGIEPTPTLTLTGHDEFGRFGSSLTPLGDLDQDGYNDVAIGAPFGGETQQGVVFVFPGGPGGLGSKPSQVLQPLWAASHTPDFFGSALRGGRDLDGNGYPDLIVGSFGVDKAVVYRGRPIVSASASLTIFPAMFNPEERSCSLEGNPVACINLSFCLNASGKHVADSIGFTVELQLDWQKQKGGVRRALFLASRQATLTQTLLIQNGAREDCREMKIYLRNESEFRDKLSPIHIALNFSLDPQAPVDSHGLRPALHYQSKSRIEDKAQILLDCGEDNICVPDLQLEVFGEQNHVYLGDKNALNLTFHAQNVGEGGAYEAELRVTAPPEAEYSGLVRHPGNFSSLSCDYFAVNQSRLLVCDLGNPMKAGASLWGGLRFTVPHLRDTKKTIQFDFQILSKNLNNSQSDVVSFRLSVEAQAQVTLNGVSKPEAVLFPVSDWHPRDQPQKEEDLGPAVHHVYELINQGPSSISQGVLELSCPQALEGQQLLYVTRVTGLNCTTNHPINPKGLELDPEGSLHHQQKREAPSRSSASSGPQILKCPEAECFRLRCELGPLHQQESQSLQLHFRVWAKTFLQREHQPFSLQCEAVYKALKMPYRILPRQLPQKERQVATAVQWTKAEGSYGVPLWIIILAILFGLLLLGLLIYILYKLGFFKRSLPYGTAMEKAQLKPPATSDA
α5β1 integrin on U87MG cells, sequence (P05556 21-798 limits assumed, chain 2 of 2): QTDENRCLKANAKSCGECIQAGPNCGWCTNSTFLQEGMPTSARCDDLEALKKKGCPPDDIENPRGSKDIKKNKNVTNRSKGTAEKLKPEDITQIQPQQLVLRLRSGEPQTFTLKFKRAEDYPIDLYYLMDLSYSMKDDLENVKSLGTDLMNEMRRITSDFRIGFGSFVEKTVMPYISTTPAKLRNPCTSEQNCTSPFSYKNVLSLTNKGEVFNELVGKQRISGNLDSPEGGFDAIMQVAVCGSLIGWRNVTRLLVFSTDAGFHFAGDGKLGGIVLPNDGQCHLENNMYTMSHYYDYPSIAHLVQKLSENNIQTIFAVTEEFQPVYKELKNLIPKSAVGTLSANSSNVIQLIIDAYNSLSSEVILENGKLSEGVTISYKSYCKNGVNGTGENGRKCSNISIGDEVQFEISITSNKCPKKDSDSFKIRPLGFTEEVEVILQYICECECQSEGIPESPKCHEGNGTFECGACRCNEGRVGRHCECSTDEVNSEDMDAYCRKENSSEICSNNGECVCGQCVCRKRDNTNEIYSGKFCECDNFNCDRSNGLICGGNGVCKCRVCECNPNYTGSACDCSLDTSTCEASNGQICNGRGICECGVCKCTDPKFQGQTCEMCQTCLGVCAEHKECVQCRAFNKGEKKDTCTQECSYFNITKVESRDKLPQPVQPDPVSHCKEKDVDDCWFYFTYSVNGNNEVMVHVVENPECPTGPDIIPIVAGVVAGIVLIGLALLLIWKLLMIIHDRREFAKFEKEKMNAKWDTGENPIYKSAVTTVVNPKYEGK

B1: A2-7A05 IgG4 Chimera (antibody, V domains shown)
VH: QVQLQQPGAELVKPGASVKLSCKASGYTFTIYWINWVKQRPGQGLEWIGKIYPGSISTDYNEKFKSKATLTVDTSSSTAYMQLSSLTSDDSAVYYCAITGTGGLAYWGQGTLVTVSA
VL: ENVLTQSPAIMSASLGEKVTMTCRASSSVNYMYWYQQKSDASPKLWIYFTSSLAPGVPGRFSGSGSGNSYSLTISTMEGEDAATYYCQQFTTSPFTFGSGTKLEIK
In general, % Inhibition refers to the change of the read-out against control, counted positive when it falls. The IC50 is the point on the concentration scale where inhibition reaches its midpoint. A low value points to inhibition by little substance. Regarding B1, in experiment [1], the “% Inhibition” value came to 25%, the “Cell Counts (Curve Bottom)” value turned out to be 28800 cells and the “Cell Counts (Curve Top)” value came out at 38200 cells. For the same molecule, the IC50 in the experiment on U87MG cell line came out at 0.27 µg/mL.

B2: A2-7A05 (antibody, V domains shown)
VH: B1 VH
VL: B1 VL
notes: mouse hybridoma antibody; also called A2-7A05 (hybridoma)
One may read the Kd as the constant that tells how readily two partners part at equilibrium. One may read the koff as the rate constant with which the complex falls apart. One may read the kon as the rate constant with which the complex forms. Regarding B2, the “% Max Inhibition” value in experiment [2] came to 41%. Further, the “Absorbance 450 nm” value in experiment [3] is 2.05. The “Absorbance 450 nm” value in experiment [4] turned out to be 0.0682. Besides, in experiment [5], the Kd amounted to 0.8 nM, the dissociation rate constant (koff) was determined as 0.000178 s⁻¹ and the on-rate constant (kon) is 222000 M⁻¹ s⁻¹. The “Absorbance 450 nm” value in experiment [6] was determined as 0.0713.

B3: A2-7F01 (antibody, V domains shown)
VH: B1 VH with K50N, I56S, D59N, S66T, L104F
VL: B1 VL with T22S, G59T, Y70F, T76S, F90L, T92G, K102R
notes: mouse hybridoma antibody
Regarding B3, the “% Max Inhibition” value in experiment [2] came out at 60%. The entries for the “Absorbance 450 nm” value in experiment [3], in experiment [4] and in experiment [6] were 2.03, 0.0563 and 0.0617, respectively. Further, the dissociation constant (Kd) in experiment [5] was determined as 1.3 nM. Also, in experiment [5], the off-rate (koff) turned out to be 0.000314 s⁻¹. For the same molecule, the association rate constant (kon) in experiment [5] is 242000 M⁻¹ s⁻¹.

B4: A2-5D10 (antibody, V domains shown)
VH: QVQLKESGPGLVAPSQSLSITCTISGFSLTSYGVHWVRQPPGKGLEWLVVIWSDGSTTYNSTLKSRLSISKDNSKSQVFLKMNSLQTDDTAMYYCARHYDYDGDWFAYWGQGTLVTVSA
VL: QILLTQSPAIMSASLGERVTMTCTASSSVSSRCLHWYQQKPGSSPKLWIYSTSNLASGVPARFRGSGSGTSYSLTISSMEAEDAATYYCHQYYRSPPTFGGGTKLEIK
notes: mouse hybridoma antibody
On to B4, for which the “% Max Inhibition” value in experiment [2] is 93%. For the same molecule, in experiment [3], the “Absorbance 450 nm” value was found to be 2.31. Besides, in experiment [4], the “Absorbance 450 nm” value was 0.0647. In addition, in experiment [5], the Kd was found to be 2.32 nM, the off-rate constant (koff) came out at 0.00161 s⁻¹ and the on-rate (kon) turned out to be 693000 M⁻¹ s⁻¹. Moreover, the “Absorbance 450 nm” value in experiment [6] was 0.0683.

B5: A-15B08 IgG4 Chimera (antibody, V domains shown)
VH: B4 VH with L80F
VL: B4 VL with L3V, S28R, R32N, C33S, R64S, Y93L
As to B5, the IC50 in the experiment on U87MG cell line came out at 0.12 µg/mL.

B6: C-14D12 IgG4 Chimera (antibody, V domains shown)
VH: QVQLKESGPDLVAPSQSLSITCTVSGFSLTDYGVHWVRQPPGKGLEWLVVIWSDGSTTYNSALKSRLSITKDTSKRQVFLKMNSLQTDDTAMYYCARHAPSFIRYGSRYDALDYWGQGTSVTVSS
VL: B4 VL with L3V, M21L, S30T, R32S, C33F, R64S, Y93H
The molecule B6 gave an IC50 with U87MG cell line of 0.14 µg/mL.

B7: A-15B08-T62A IgG4 Chimera (antibody, V domains shown)
VH: B4 VH with T62A, L80F
VL: B4 VL with L3V, S28R, R32N, C33S, R64S, Y93L
As to B7, in experiment [1], the “% Inhibition” value came out at 82%, the “Cell Counts (Curve Bottom)” value turned out to be 6320 cells and the “Cell Counts (Curve Top)” value was found to be 35400 cells. The molecule also showed a 50% inhibitory concentration (IC50) in the experiment on U87MG cell line of 0.15 µg/mL.
